Test results from the RNAGym collection of RNA variant scans (doi:10.1093/nar/gkz1192).

B1: CPEB3 Ribozyme (parent)
chain: UAACAGGGGGCCACAGCAGAAGCGUUCACGUCGCAGCCCCUGUCAGAUUCUGGUGAAUCUGCGAAUUCUGCUGUAUAUCUC

Variants of: B1
Experiment: self-cleavage, relative activity (ratio to wild type); higher = more cleavage; in vitro, sequencing
In short: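 Libraries of CPEB3 self-cleaving ribozyme mutants came from rounds of error-prone PCR and carried barcodes, which DNA sequencing matched to variants. In vitro transcription used T7 RNA polymerase at 37°C for 5 hours, with a further 15 min in DNase I before EDTA stopped the reaction; the ribozymes cleaved during both steps. The RNA was reverse transcribed with template switching and sequenced on Illumina. Relative activity is the cleaved/total read fraction of a variant divided by that of the unmutated ribozyme, averaged over three batches with at least 5 reads.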
With UAACAGGUGGCCACAGCAGAAGCGUUCACGUCGCAGCCCCUGUCAGAUUCUGGUGAAUCUGCGAAUUCUGCAGUAUAUCUC [G8U U72A] the self-cleavage was 0.07. Work on UAACAGGUGGCCACAGCAGAAGCGUUCACGUCGCAGCCCCUGUCAGAUUCUGGUGAAUCUGCGAAUUCUGCCGUAUAUCUC [G8U U72C] yielded a self-cleavage of 0.15. UAACAGGUGGCCACAGCAGAAGCGUUCACGUCGCAGCCCCUGUCAGAUUCUGGUGAAUCUGCGAAUUCUGCUGAAUAUCUC [G8U U74A] gave a self-cleavage of 0.41. In the case of UAACAGGUGGCCACAGCAGAAGCGUUCACGUCGCAGCCCCUGUCAGAUUCUGGUGAAUCUGCGAAUUCUGCUGGAUAUCUC [G8U U74G], the self-cleavage is reported as 0.17. Variant UAACAGGUGGCCACAGCAGAAGCGUUCACGUCGCAGCCCCUGUCAGAUUCUGGUGAAUCUGCGAAUUCUGCUGUAAAUCUC [G8U U76A] has a self-cleavage of 0.28. UAACAGGUGGCCACAGCAGAAGCGUUCACGUCGCAGCCCCUGUCAGAUUCUGGUGAAUCUGCGAAUUCUGCUGUACAUCUC [G8U U76C] gave a self-cleavage of 0.13. In the case of UAACAGGUGGCCACAGCAGAAGCGUUCACGUCGCAGCCCCUGUCAGAUUCUGGUGAAUCUGCGAAUUCUGCUGUAUAACUC [G8U U78A], the self-cleavage is reported as 0.21. Work on UAACAGGUGGCCACAGCAGAAGCGUUCACGUCGCAGCCCCUGUCAGAUUCUGGUGAAUCUGCGAAUUCUGCUGUAUACCUC [G8U U78C] yielded a self-cleavage of 0.17. Work on UAACAGGUGGCCACAGCAGAAGCGUUCACGUCGCAGCCCCUGUCAGAUUCUGGUGAAUCUGCGAAUUCUGCUGUAUAUCAC [G8U U80A] yielded a self-cleavage of 0.2. UAACAGGUGGCCACAGCAGAAGCGUUCACGUCGCAGCCCCUGUCAGAUUCUGGUGAAUCUGCGAAUUCUGCUGUAUAUCCC [G8U U80C] gave a self-cleavage of 0.16. UAACAGGUGGCCACAGCAGAAGCGUUCACGUCGCAGCCCCUGUCAGAUUCUGGUGAAUCUGCGAAUUCUGCUGUAUAUCGC [G8U U80G] gave a self-cleavage of 0.2. With UAACAGGGAGCCACAGCAGAAGCGUUCACGUCGCAGCCCCUGUCAGAUUCUGGUGAAUCUGCGAAUUCUGCUGUAUAUCUC [G9A] the self-cleavage was 0.29. In the case of UAACAGGGAGCCGCAGCAGAAGCGUUCACGUCGCAGCCCCUGUCAGAUUCUGGUGAAUCUGCGAAUUCUGCUGUAUAUCUC [G9A A13G], the self-cleavage is reported as 0.3. With UAACAGGGAGCCUCAGCAGAAGCGUUCACGUCGCAGCCCCUGUCAGAUUCUGGUGAAUCUGCGAAUUCUGCUGUAUAUCUC [G9A A13U] the self-cleavage was 0.28. Work on UAACAGGGAGCCACGGCAGAAGCGUUCACGUCGCAGCCCCUGUCAGAUUCUGGUGAAUCUGCGAAUUCUGCUGUAUAUCUC [G9A A15G] yielded a self-cleavage of 0.3. Variant UAACAGGGAGCCACUGCAGAAGCGUUCACGUCGCAGCCCCUGUCAGAUUCUGGUGAAUCUGCGAAUUCUGCUGUAUAUCUC [G9A A15U] has a self-cleavage of 0.15. In the case of UAACAGGGAGCCACAGCGGAAGCGUUCACGUCGCAGCCCCUGUCAGAUUCUGGUGAAUCUGCGAAUUCUGCUGUAUAUCUC [G9A A18G], the self-cleavage is reported as 0.21. UAACAGGGAGCCACAGCUGAAGCGUUCACGUCGCAGCCCCUGUCAGAUUCUGGUGAAUCUGCGAAUUCUGCUGUAUAUCUC [G9A A18U] showed a self-cleavage of 0.14. UAACAGGGAGCCACAGCAGCAGCGUUCACGUCGCAGCCCCUGUCAGAUUCUGGUGAAUCUGCGAAUUCUGCUGUAUAUCUC [G9A A20C] showed a self-cleavage of 0.39. Variant UAACAGGGAGCCACAGCAGGAGCGUUCACGUCGCAGCCCCUGUCAGAUUCUGGUGAAUCUGCGAAUUCUGCUGUAUAUCUC [G9A A20G] has a self-cleavage of 0.37. UAACAGGGAGCCACAGCAGUAGCGUUCACGUCGCAGCCCCUGUCAGAUUCUGGUGAAUCUGCGAAUUCUGCUGUAUAUCUC [G9A A20U] showed a self-cleavage of 0.43. In the case of UAACAGGGAGCCACAGCAGACGCGUUCACGUCGCAGCCCCUGUCAGAUUCUGGUGAAUCUGCGAAUUCUGCUGUAUAUCUC [G9A A21C], the self-cleavage is reported as 0.06. For UAACAGGGAGCCACAGCAGAGGCGUUCACGUCGCAGCCCCUGUCAGAUUCUGGUGAAUCUGCGAAUUCUGCUGUAUAUCUC [G9A A21G], the self-cleavage was 0.19. For UAACAGGGAGCCACAGCAGAAGCGUUCCCGUCGCAGCCCCUGUCAGAUUCUGGUGAAUCUGCGAAUUCUGCUGUAUAUCUC [G9A A28C], the self-cleavage was 0.2. In the case of UAACAGGGAGCCACAGCAGAAGCGUUCGCGUCGCAGCCCCUGUCAGAUUCUGGUGAAUCUGCGAAUUCUGCUGUAUAUCUC [G9A A28G], the self-cleavage is reported as 0.24. Variant UAACAGGGAGCCACAGCAGAAGCGUUCUCGUCGCAGCCCCUGUCAGAUUCUGGUGAAUCUGCGAAUUCUGCUGUAUAUCUC [G9A A28U] has a self-cleavage of 0.22. In the case of UAACAGGGAGCCACAGCAGAAGCGUUCACGUCGCGGCCCCUGUCAGAUUCUGGUGAAUCUGCGAAUUCUGCUGUAUAUCUC [G9A A35G], the self-cleavage is reported as 0.66. For UAACAGGGAGCCACAGCAGAAGCGUUCACGUCGCUGCCCCUGUCAGAUUCUGGUGAAUCUGCGAAUUCUGCUGUAUAUCUC [G9A A35U], the self-cleavage was 0.18. In the case of UAACAGGGAGCCACAGCAGAAGCGUUCACGUCGCAGCCCCUGUCGGAUUCUGGUGAAUCUGCGAAUUCUGCUGUAUAUCUC [G9A A45G], the self-cleavage is reported as 0.39. Work on UAACAGGGAGCCACAGCAGAAGCGUUCACGUCGCAGCCCCUGUCUGAUUCUGGUGAAUCUGCGAAUUCUGCUGUAUAUCUC [G9A A45U] yielded a self-cleavage of 0.21. With UAACAGGGAGCCACAGCAGAAGCGUUCACGUCGCAGCCCCUGUCAGGUUCUGGUGAAUCUGCGAAUUCUGCUGUAUAUCUC [G9A A47G] the self-cleavage was 0.37. Work on UAACAGGGAGCCACAGCAGAAGCGUUCACGUCGCAGCCCCUGUCAGUUUCUGGUGAAUCUGCGAAUUCUGCUGUAUAUCUC [G9A A47U] yielded a self-cleavage of 0.06. For UAACAGGGAGCCACAGCAGAAGCGUUCACGUCGCAGCCCCUGUCAGAUUCUGGUGCAUCUGCGAAUUCUGCUGUAUAUCUC [G9A A56C], the self-cleavage was 0.24. Work on UAACAGGGAGCCACAGCAGAAGCGUUCACGUCGCAGCCCCUGUCAGAUUCUGGUGGAUCUGCGAAUUCUGCUGUAUAUCUC [G9A A56G] yielded a self-cleavage of 0.18.
